To fix the notation:
B1: Non-structural maintenance of chromosomes element 3 homolog (Homo sapiens), Q96MG7 (parent)
chain: MLQKPRNRGRSGGQAERDRDWSHSGNPGASRAGEDARVLRDGFAEEAPSTSRGPGGSQGSQGPSPQGARRAQAAPAVGPRSQKQLELKVSELVQFLLIKDQKKIPIKRADILKHVIGDYKDIFPDLFKRAAERLQYVFGYKLVELEPKSNTYILINTLEPVEEDAEMRGDQGTPTTGLLMIVLGLIFMKGNTIKETEAWDFLRRLGVYPTKKHLIFGDPKKLITEDFVRQRYLEYRRIPHTDPVDYEFQWGPRTNLETSKMKVLKFVAKVHNQDPKDWPAQYCEALADEENRARPQPSGPAPSS
partner: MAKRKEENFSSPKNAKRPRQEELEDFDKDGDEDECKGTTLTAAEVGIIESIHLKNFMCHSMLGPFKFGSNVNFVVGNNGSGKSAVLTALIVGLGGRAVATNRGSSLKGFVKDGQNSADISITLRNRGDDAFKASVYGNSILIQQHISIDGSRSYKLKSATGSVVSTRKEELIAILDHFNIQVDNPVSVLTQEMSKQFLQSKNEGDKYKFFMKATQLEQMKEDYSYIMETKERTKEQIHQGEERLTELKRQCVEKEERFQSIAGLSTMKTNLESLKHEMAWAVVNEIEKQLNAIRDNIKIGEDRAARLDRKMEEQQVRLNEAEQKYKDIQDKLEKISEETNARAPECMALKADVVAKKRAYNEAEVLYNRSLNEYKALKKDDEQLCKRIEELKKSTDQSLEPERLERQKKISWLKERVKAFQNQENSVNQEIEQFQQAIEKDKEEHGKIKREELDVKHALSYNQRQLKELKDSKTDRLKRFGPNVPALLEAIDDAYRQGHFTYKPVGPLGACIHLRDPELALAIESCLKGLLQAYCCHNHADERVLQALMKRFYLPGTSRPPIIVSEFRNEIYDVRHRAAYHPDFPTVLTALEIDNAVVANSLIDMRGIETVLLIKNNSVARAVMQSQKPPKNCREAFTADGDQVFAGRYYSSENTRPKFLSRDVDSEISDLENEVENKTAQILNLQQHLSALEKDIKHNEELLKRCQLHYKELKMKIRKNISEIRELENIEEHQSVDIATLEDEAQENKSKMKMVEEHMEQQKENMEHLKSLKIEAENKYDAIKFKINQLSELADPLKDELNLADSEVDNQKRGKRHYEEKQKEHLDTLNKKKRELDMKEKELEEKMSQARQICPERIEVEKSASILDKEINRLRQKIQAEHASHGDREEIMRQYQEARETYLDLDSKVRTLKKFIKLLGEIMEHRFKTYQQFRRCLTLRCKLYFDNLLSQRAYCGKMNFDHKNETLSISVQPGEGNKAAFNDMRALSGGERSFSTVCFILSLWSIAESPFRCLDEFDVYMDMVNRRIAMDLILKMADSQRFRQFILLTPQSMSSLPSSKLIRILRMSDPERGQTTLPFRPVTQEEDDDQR
B2: Non-structural maintenance of chromosomes element 3 homolog (Homo sapiens), Q96MG7 (parent)
chain: B1 chain
partner: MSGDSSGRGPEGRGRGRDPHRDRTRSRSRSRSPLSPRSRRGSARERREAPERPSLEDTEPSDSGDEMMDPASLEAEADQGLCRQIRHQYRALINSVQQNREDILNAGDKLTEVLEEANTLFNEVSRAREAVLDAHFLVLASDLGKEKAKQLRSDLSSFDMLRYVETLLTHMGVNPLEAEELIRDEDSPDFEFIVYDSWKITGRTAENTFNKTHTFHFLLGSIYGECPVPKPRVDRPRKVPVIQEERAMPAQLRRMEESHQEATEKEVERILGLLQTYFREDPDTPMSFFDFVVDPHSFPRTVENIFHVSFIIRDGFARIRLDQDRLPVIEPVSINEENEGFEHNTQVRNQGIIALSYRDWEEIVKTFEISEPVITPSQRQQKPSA
B3: Non-structural maintenance of chromosomes element 3 homolog (Homo sapiens), Q96MG7 (parent)
chain: B1 chain
partner: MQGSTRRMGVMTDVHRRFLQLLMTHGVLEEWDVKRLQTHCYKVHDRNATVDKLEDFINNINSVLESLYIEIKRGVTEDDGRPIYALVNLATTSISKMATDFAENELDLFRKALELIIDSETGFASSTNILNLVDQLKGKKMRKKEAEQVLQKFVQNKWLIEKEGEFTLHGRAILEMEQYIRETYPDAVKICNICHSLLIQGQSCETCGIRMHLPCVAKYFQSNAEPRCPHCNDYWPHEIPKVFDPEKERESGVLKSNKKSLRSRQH

Variants of B1 are the subject of the first test. The conditions noted are these: with smc6_human SMC6, Q96SB8.
With MLQKPRNRGRSGGQAERDRDWSHSGNPGASRAGEDARVLRDGFAEEAPSTSRGPGGSQGSQGPSPQGARRAQAAPAVGPRSQKQLELKVSELVQFLLIKDQKKIPIKRADILKHVIGDYKDIFPDLFKRAAERLQYVFGYKLVELEPKSNTYILINTLEPVEEDAEMRGDQGTPTTGLLMIVLGLIFMKGNTIKETEAWDFLRRLGVYPTKKHLIFGDPKKLITEDFVRQRYLEYRRIPHTDPVDYEFQWGPRTNLETSKMKVFKFVAKVHNQDPKDWPAQYCEALADEENRARPQPSGPAPSS [L264F], the “effect of a mutation on the interaction” value is “disrupting interaction strength”.

In another test the parent is B2. The note with it: with nse4a_human NSMCE4A.
MLQKPRNRGRSGGQAERDRDWSHSGNPGASRAGEDARVLRDGFAEEAPSTSRGPGGSQGSQGPSPQGARRAQAAPAVGPRSQKQLELKVSELVQFLLIKDQKKIPIKRADILKHVIGDYKDIFPDLFKRAAERLQYVFGYKLVELEPKSNTYILINTLEPVEEDAEMRGDQGTPTTGLLMIVLGLIFMKGNTIKETEAWDFLRRLGVYLTKKHLIFGDPKKLITEDFVRQRYLEYRRIPHTDPVDYEFQWGPRTNLETSKMKVLKFVAKVHNQDPKDWPAQYCEALADEENRARPQPSGPAPSS [P209L]: the “effect of a mutation on the interaction” value is “disrupting interaction strength”.

Take MLQKPRNRGRSGGQAERDRDWSHSGNPGASRAGEDARVLRDGFAEEAPSTSRGPGGSQGSQGPSPQGARRAQAAPAVGPRSQKQLELKVSELVQFLLIKDQKKIPIKRADILKHVIGDYKDIFPDLFKRAAERLQYVFGYKLVELEPKSNTYILINTLEPVEEDAEMRGDQGTPTTGLLMIVLGLIFMKGNTIKETEAWDFLRRLGVYPTKKHLIFGDPKKLITEDFVRQRYLEYRRIPHTDPVDYEFQWGPRTNLETSKMKVLKAVAKVHNQDPKDWPAQYCEALADEENRARPQPSGPAPSS [F266A]: the “effect of a mutation on the interaction” value is “disrupting interaction strength”.

Consider MLQKPRNRGRSGGQAERDRDWSHSGNPGASRAGEDARVLRDGFAEEAPSTSRGPGGSQGSQGPSPQGARRAQAAPAVGPRSQKQLELKVSELVQFLLIKDQKKIPIKRADILKHVIGDYKDIFPDLFKRAAERLQYVFGYKLVELEPKSNTYILINTLEPVEEDAEMRGDQGTPTTGLLMIVLGLIFMKGNTIKETEAWDFLRRLGVYPTKKHLIFGDPKKLITEDFVRQRYLEYRRIPHTDPVDYEFQWGPRTNLETSKMKVFKFVAKVHNQDPKDWPAQYCEALADEENRARPQPSGPAPSS [L264F], for which the “effect of a mutation on the interaction” value is on record as “disrupting interaction strength”.

On to MLQKPRNRGRSGGQAERDRDWSHSGNPGASRAGEDARVLRDGFAEEAPSTSRGPGGSQGSQGPSPQGARRAQAAPAVGPRSQKQLELKVSELVQFLAIKDQKKIPIKRADILKHVIGDYKDIFPDLFKRAAERLQYVFGYKLVELEPKSNTYILINTLEPVEEDAEMRGDQGTPTTGLLMIVLGLIFMKGNTIKETEAWDFLRRLGVYPTKKHLIFGDPKKLITEDFVRQRYLEYRRIPHTDPVDYEFQWGPRTNLETSKMKVLKFVAKVHNQDPKDWPAQYCEALADEENRARPQPSGPAPSS [L97A], for which the “effect of a mutation on the interaction” value is recorded as “with no effect”.

The variants in the next test derive from B3. The conditions noted are these: with nse1_human NSMCE1, Q8WV22.
In the case of MLQKPRNRGRSGGQAERDRDWSHSGNPGASRAGEDARVLRDGFAEEAPSTSRGPGGSQGSQGPSPQGARRAQAAPAVGPRSQKQLELKVSELVQFLLIKDQKKIPIKRADILKHVIGDYKDIFPDLFKRAAERLQYVFGYKLVELEPKSNTYILINTLEPVEEDAEMRGDQGTPTTGLLMIVLGLIFMKGNTIKETEAWDFLRRLGVYPTKKHLIFGDPKKLITEDFVRQRYLEYRRIPHTDPVDYEFQWGPRTNLETSKMKVLKAVAKVHNQDPKDWPAQYCEALADEENRARPQPSGPAPSS [F266A], the “effect of a mutation on the interaction” value is listed as “with no effect”.

In the case of MLQKPRNRGRSGGQAERDRDWSHSGNPGASRAGEDARVLRDGFAEEAPSTSRGPGGSQGSQGPSPQGARRAQAAPAVGPRSQKQLELKVSELVQFLAIKDQKKIPIKRADILKHVIGDYKDIFPDLFKRAAERLQYVFGYKLVELEPKSNTYILINTLEPVEEDAEMRGDQGTPTTGLLMIVLGLIFMKGNTIKETEAWDFLRRLGVYPTKKHLIFGDPKKLITEDFVRQRYLEYRRIPHTDPVDYEFQWGPRTNLETSKMKVLKFVAKVHNQDPKDWPAQYCEALADEENRARPQPSGPAPSS [L97A], the “effect of a mutation on the interaction” value is “disrupting interaction strength”.

As for MLQKPRNRGRSGGQAERDRDWSHSGNPGASRAGEDARVLRDGFAEEAPSTSRGPGGSQGSQGPSPQGARRAQAAPAVGPRSQKQLELKVSELVQFLLIKDQKKIPIKRADILKHVIGDYKDIFPDLFKRAAERLQYVFGYKLVELEPKSNTYILINTLEPVEEDAEMRGDQGTPTTGLLMIVLGLIFMKGNTIKETEAWDFLRRLGVYLTKKHLIFGDPKKLITEDFVRQRYLEYRRIPHTDPVDYEFQWGPRTNLETSKMKVLKFVAKVHNQDPKDWPAQYCEALADEENRARPQPSGPAPSS [P209L], the “effect of a mutation on the interaction” value was “decreasing interaction strength”.

Take MLQKPRNRGRSGGQAERDRDWSHSGNPGASRAGEDARVLRDGFAEEAPSTSRGPGGSQGSQGPSPQGARRAQAAPAVGPRSQKQLELKVSELVQFLLIKDQKKIPIKRADILKHVIGDYKDIFPDLFKRAAERLQYVFGYKLVELEPKSNTYILINTLEPVEEDAEMRGDQGTPTTGLLMIVLGLIFMKGNTIKETEAWDFLRRLGVYPTKKHLIFGDPKKLITEDFVRQRYLEYRRIPHTDPVDYEFQWGPRTNLETSKMKVFKFVAKVHNQDPKDWPAQYCEALADEENRARPQPSGPAPSS [L264F]: the “effect of a mutation on the interaction” value is recorded as “with no effect”.

A further test covers variants of B3. The note with it: with nse1_human NSMCE1, Q8WV22. This is another data set of the same source.
As for MLQKPRNRGRSGGQAERDRDWSHSGNPGASRAGEDARVLRDGFAEEAPSTSRGPGGSQGSQGPSPQGARRAQAAPAVGPRSQKQLELKVSELVQFLLIKDQKKIPIKRADILKHVIGDYKDIFPDLFKRAAERLQYVFGYKLVELEPKSNTYILINTLEPVEEDAEMRGDQGTPTTGLLMIVLGLIFMKGNTIKETEAWDFLRRLGVYPTKKHLIFGDPKKLITEDFVRQRYLEYRRIPHTDPVDYEFQWGPRTNLETSKMKVFKFVAKVHNQDPKDWPAQYCEALADEENRARPQPSGPAPSS [L264F], the “effect of a mutation on the interaction” value is reported as “decreasing interaction strength”.

(Values after IntAct's records for PubMed 27427983.)
